Laboratory results as given in article doi:10.1101/2022.07.04.498665 (bioRxiv, 2022).
Values joined by “and” are separate entries in the source; they are usually repeats but may differ in a detail not shown here. Identical values can stand only once.

Assays:
SAXS = molecular target: the molecule itself; test: SAXS
SEC = molecular target: the molecule itself; test: SEC

B1: Mu8.1 (natural protein)
chain: GENSDNLTHCRLFEFRLCLLECMSLTLDHCYARCTTVITQIHGSDTNRFDCTIFKTCYYRCYVLGKTEDHCWKGTATSVTGDVGDLEFC
stoichiometry N (SAXS): 4 and 6
stoichiometry N (SEC): 2
